Measurements taken from patent publication US20250188033A1, “INHIBITOR OF REPLICATION PROTEIN A1 OF TRYPANOSOMA BRUCEI AND METHOD OF USE THEREOF” (Research Foundation of the City University of New York, published 2025).

T1: TbRPA complex (RPA1/RPA2/RPA3) (Trypanosoma brucei, UniProt Q384B5;Q57ZN9;Q38DK0 Q384B5:1-463,Q57ZN9:1-255,Q38DK0:1-127)
T1 sequence 1: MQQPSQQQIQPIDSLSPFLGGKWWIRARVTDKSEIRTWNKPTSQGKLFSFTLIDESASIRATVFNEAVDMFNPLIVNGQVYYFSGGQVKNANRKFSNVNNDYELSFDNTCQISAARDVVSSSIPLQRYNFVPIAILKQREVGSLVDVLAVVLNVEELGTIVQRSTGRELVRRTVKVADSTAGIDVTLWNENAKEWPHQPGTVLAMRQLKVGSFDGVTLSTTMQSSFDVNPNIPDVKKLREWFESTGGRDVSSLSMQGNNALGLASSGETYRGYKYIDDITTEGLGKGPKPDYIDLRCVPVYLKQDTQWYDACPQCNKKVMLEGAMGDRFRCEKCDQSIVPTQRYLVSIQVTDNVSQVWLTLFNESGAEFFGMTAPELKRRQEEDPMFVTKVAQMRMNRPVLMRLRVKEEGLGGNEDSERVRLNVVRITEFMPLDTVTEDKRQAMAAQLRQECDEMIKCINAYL
T1 sequence 2: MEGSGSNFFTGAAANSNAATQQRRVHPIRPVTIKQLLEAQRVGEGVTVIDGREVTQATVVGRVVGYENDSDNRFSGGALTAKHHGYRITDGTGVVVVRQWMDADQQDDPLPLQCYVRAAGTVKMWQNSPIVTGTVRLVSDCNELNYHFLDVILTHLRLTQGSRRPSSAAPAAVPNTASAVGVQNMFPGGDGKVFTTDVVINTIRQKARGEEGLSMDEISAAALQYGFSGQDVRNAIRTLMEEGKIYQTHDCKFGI
T1 sequence 3: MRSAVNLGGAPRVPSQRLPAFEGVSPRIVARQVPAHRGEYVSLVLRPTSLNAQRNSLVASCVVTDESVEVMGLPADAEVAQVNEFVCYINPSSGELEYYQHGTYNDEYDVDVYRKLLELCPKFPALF

T2: TcRPA1 DBD-AB (Trypanosoma cruzi, UniProt Q4DXC9 Q4DXC9:1-256)
T2 sequence: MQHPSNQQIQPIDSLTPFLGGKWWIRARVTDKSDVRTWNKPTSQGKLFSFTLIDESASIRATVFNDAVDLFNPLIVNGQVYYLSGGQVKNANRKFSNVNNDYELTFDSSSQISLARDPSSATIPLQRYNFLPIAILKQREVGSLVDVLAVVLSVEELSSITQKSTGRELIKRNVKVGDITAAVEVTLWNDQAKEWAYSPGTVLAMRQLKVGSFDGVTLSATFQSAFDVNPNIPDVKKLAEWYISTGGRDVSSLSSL

T3: LmexRPA1 DBD-AB (Leishmania mexicana, UniProt E9B001 E9B001:1-258)
T3 sequence: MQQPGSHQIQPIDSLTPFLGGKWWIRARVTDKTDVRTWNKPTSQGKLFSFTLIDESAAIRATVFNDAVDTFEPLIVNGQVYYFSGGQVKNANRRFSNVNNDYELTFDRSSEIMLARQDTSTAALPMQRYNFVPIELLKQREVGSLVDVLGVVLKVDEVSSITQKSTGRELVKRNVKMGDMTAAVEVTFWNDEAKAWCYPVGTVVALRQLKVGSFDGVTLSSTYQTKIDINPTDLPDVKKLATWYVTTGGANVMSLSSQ


Assays:
[1] = molecular target: T1, TbRPA complex (RPA1/RPA2/RPA3); test: MST; 10 mM MgCl2, 10 mM NaCl, Tris pH 7.5, 22 C; JC-229 inhibits binding, IC50 24.5 nM; details: tags: 6xHis-thrombin site on RPA1 (pSR8), E. coli; one complex per dT32 stated; label: 5' Cy5
Experimental: FIG. 5C are graphs showing recombinant TbRPA complex was 2-fold serially diluted from 400 nM concentration and these were incubated with 10 nM 5′Cy5-dT₃₂. Binding was analyzed by MST (left). Serial dilutions of JC-229 were pre-incubated with 25 nM TbRPA complex and then with 10 nM 5′Cy5-dT₃₂. Inhibition of binding was analyzed by MST (right).
(§1) MST experiments were performed on Monolith NT.115 instrument with red filter (Nanotemper Technologies) in MST binding buffer (20 mM Tris, pH 7.5, 10 mM NaCl, 10 mM MgCl₂, 2 mM DTT, 10% glycerol and 0.1 mg/ml BSA) using premium-coated capillaries (Nanotemper Technologies). MST experiments were performed with 40% LED power and 40% MST power at 22° C.
(§2) ssDNA-binding assay: The 5′Cy5 labeled-oligo dT32 was purchased from IDT. Increasing concentrations of purified protein (from 0.06 nM to 2,000 nM for DBD-AB proteins; from 0.02 nM to 800 nM for RPA complexes) were incubated with equal volume (10 μl) of 5′Cy5-labeld oligo dT₃₂ (10 nM final concentration) in MST binding buffer for 15 min at room temperature. Samples were then loaded into MST capillaries.

TcRPA1 DBD-AB = molecular target: T2, TcRPA1 DBD-AB; test: MST; p171-172 quotes 12.6 nM for the same WT protein; 10 mM MgCl2, 22 C; not inhibited by JC-229; details: tags: N-terminal 6xHis, pET28a (pSR13), E. coli; label: 5' Cy5
Experimental: as §1, §2

TbRPA1 DBD-AB F64A [2] = molecular target: T4, TbRPA1 DBD-AB F64A (Trypanosoma brucei, UniProt Q384B5 Q384B5:1-257, F64A); test: MST; no ssDNA-binding activity; details: tags: 6xHis, pET28a, E. coli; label: 5' Cy5
TbRPA1 DBD-AB W188A [3] = molecular target: T5, TbRPA1 DBD-AB W188A (Trypanosoma brucei, UniProt Q384B5 Q384B5:1-257, W188A); test: MST; no ssDNA-binding activity; details: tags: 6xHis, pET28a, E. coli; label: 5' Cy5
HsRPA1 DBD-AB = HsRPA1 DBD-AB (Homo sapiens, UniProt P27694 P27694:181-422); test: MST; 10 mM MgCl2, 10 mM NaCl, Tris pH 7.5, 22 C; not inhibited by JC-229; details: tags: 6xHis, pET28a (pSR15), E. coli; label: 5' Cy5
Chain of HsRPA1 DBD-AB (P27694 181-422, one chain of several): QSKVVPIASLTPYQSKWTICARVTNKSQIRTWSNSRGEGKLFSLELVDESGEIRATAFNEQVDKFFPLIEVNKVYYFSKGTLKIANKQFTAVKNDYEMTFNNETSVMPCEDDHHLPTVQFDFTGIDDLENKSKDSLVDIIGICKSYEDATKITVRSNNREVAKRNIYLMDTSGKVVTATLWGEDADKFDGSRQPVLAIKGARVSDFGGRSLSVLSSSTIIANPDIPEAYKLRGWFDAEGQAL
Experimental: as §1, §2

LmexRPA1 DBD-AB = molecular target: T3, LmexRPA1 DBD-AB; test: as above; details: tags: N-terminal 6xHis, pET28a (pSR16), E. coli; label: 5' Cy5
Experimental: as §1, §2

TcRPA1 DBD-AB T105S = TcRPA1 DBD-AB T105S (Trypanosoma cruzi, UniProt Q4DXC9 Q4DXC9:1-256, T105S); test: MST; 10 mM MgCl2, 22 C; JC-229 IC50 159x10^3 nM; details: tags: N-terminal 6xHis, pET28a, E. coli; label: 5' Cy5
TbRPA1 DBD-AB S105T = TbRPA1 DBD-AB S105T (Trypanosoma brucei, UniProt Q384B5 Q384B5:1-257, S105T); test: EMSA; 10 mM MgCl2, RT; not inhibited by JC-229; details: tags: 6xHis, pET28a, E. coli; label: 5' IRDye800
TbRPA1 DBD-AB F64A [4] = molecular target: T4, TbRPA1 DBD-AB F64A; test: EMSA; no ssDNA-binding activity; details: tags: 6xHis, pET28a, E. coli; label: 5' IRDye800
TbRPA1 DBD-AB W188A [5] = molecular target: T5, TbRPA1 DBD-AB W188A; test: EMSA; no ssDNA-binding activity; details: tags: 6xHis, pET28a, E. coli; label: 5' IRDye800

Binder	Kd [1] [nM]	Kd (TcRPA1 DBD-AB) [nM]	binding result (TbRPA1 DBD-AB F64A [2])	binding result (TbRPA1 DBD-AB W188A [3])	Kd (HsRPA1 DBD-AB) [nM]	Kd (LmexRPA1 DBD-AB) [nM]	Kd (TcRPA1 DBD-AB T105S) [nM]	binding result (TbRPA1 DBD-AB S105T)	binding result (TbRPA1 DBD-AB F64A [4])	binding result (TbRPA1 DBD-AB W188A [5])
TTTTTTTTTTTTTTTTTTTTTTTTTTTTTTTT (ssDNA) [5'Cy5-dT32]	13.2	13.2	no binding	no binding	48	12.6	52.4	–	–	–
TTTTTTTTTTTTTTTTTTTTTTTTTTTTTTTT (ssDNA) [5'IRDye800-dT32]	–	–	–	–	–	–	–	binds	no binding	no binding
